The values below come from paper PMC4627068 (Nucleic Acids Research, 2015).

Data set [1] concerns the molecule itself. Briefly: far-Western, overlay or dot blot.
The target in data set [2] is β' subunit of Bacillus subtilis RNAP-σ^A (Bacillus subtilis, UniProt P37871 1-1199). Briefly: far-Western, overlay or dot blot.
β' subunit of Bacillus subtilis RNAP-σ^A, sequence (P37871 whole entry): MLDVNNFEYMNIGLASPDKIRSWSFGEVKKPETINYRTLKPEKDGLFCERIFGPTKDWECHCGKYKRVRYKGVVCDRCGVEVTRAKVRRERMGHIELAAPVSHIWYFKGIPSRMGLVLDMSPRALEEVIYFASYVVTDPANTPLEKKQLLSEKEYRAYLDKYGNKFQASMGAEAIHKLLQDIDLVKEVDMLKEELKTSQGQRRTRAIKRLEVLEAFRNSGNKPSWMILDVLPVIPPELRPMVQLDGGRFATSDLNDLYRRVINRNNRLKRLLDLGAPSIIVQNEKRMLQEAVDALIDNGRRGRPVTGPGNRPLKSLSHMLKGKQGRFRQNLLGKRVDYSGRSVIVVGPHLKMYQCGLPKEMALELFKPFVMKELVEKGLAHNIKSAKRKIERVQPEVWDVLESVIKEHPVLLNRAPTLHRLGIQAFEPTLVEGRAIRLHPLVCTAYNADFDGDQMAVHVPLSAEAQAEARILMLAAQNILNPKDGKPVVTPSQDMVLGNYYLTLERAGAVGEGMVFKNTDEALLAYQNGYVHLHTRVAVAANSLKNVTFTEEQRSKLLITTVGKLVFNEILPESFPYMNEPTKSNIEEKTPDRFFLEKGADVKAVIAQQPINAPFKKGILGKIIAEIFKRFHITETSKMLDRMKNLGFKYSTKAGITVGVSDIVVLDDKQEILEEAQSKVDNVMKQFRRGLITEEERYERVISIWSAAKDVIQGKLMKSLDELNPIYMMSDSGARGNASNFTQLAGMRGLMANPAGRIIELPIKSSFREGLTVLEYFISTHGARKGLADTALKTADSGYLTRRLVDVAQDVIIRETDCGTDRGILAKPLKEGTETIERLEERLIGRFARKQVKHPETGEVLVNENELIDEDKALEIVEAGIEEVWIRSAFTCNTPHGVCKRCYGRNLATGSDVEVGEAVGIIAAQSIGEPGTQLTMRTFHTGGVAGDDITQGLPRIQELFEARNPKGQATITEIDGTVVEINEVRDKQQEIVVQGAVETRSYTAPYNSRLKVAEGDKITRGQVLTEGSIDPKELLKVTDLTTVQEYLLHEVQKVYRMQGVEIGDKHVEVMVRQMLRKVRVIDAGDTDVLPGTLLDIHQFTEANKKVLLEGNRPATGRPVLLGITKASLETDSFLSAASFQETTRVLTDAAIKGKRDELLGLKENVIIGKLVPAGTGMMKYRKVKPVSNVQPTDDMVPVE

B1: ω2 (homodimeric form of the plasmid pSM19035 ω protein) (natural protein, Streptococcus pyogenes, UniProt Q57468 1-71, looked up)
chain: MIVGNLGAQKAKRNDTPISAKKDIMGDKTVRVRADLHHIIKIETAKNGGNVKEVMDQALEEYIRKYLPDKL
As for B1, the binding result in data set [1] and in data set [2] was “binds” throughout.
